# Results taken from US20120045393A1 (priority 2009, published 2012).
# Non-standard residues stand in square brackets, D forms with d. Primed or numbered codes have the meaning given here. DO3A10CM″ = chelating group at the N-terminus (X in the sequence tables); Bpa = N[C@@H](Cc1ccc(C(=O)c2ccccc2)cc1)C(=O)O; d2Nal = N[C@H](Cc1ccc2ccccc2c1)C(=O)O; DO3A10CM = not defined here; Chmgly = not defined here; Apgly = not defined here; Bugly = not defined here; Cegly = not defined here; Etgly = not defined here; Hegly = not defined here; Iegly = not defined here; Ipgly = not defined here; Mpgly = not defined here; Prgly = not defined here; Tdgly = not defined here; Btd = not defined here; Tha = not defined here; azaGly = NNC(=O)O; Sar = CNCC(=O)O
# Biological target: LHRH binding sites on EFO-27 human ovarian cancer cells (human)
# Experiment: competition with [125I-Tyr8]BRU-2477 on EFO-27 cells
Binder,EC50 [nM],times lower binding than BRU-2443 [times],times lesser binding efficacy than BRU-2443 [times],fold reduction in binding potency against BRU-2813 [fold]
DO3A10CM-[Sar]HWSH[dW]W[Bpa]P[azaGly]-NH2 (reading uncertain) [BRU-2731],1360,,,
XHWSHXWXPX (DO3A10CM on N-terminus; AA1 Sar; AA6 Darg; AA8 Lys(isp); AA10 azaGly-NH2) [BRU-2675],12300,,,
XRXSHXWXPX (DO3A10CM on N-terminus; AA1 Dnal2; AA3 Dtrp; AA6 Darg; AA8 Bpa4; AA10 azaGly-NH2) [BRU-3112],850,,,
XHWSHXWXPX (DO3A10CM on N-terminus; AA1 Mednal2; AA6 Darg; AA8 Bpa4; AA10 azaGly-NH2) [BRU-3003],760,,,
DO3A10CM-G[Mpgly]HWSH[dR]W[Bpa]P[azaGly]-NH2 (reading uncertain) [BRU-2793],1340,,,
DO3A10CM-[d2Nal]RWSR[dW]W[Bpa]P[azaGly]-NH2 (reading uncertain) [BRU-3001],3280,,,
XHWSHXWXPX (DO3A10CM on N-terminus; AA1 Sar; AA6 Darg; AA8 Tbufe4; AA10 azaGly-NH2) [BRU-2634],980,,,
DO3A10CM-G[Iegly]HWSHRW[Bpa]P[azaGly]-NH2 (not fully specified (residue 7); reading uncertain; also: AA6 Darg prints R) [BRU-2879],1030,,,
XRWSXXWXPX (DO3A10CM on N-terminus; AA1 Dnal2; AA5 Cit; AA6 Darg; AA8 Bpa4; AA10 azaGly-NH2) [BRU-3030],930,,,
DO3A10CM-G[Tdgly]HWSHRW[Bpa]P[azaGly]-NH2 (not fully specified (residue 7); reading uncertain; also: AA6 Darg prints R) [BRU-2878],4480,,,
XRWXHXWXPX (DO3A10CM on N-terminus; AA1 Dnal2; AA4 Pal4; AA6 Darg; AA8 Bpa4; AA10 azaGly-NH2) [BRU-2957],840,,,
DO3A10CM-G[Apgly]HWSHRW[Bpa]P[azaGly]-NH2 (not fully specified (residue 7); reading uncertain; also: AA6 Darg prints R) [BRU-2874],1970,,,
XHWSHXWXPX (DO3A10CM on N-terminus; AA1 Sar; AA6 Darg; AA8 Tyr(OBz); AA10 azaGly-NH2) [BRU-2820],1570,,,
{DO3A10CM″}-G[Mephe]HWSHRW[Bpa]P[azaGly]-NH2 (not fully specified (residue 7)) [BRU-2755],1290,,,
XHWSHXWXPX (DO3A10CM on N-terminus; AA1 Sar; AA6 Darg; AA8 Aic2; AA10 azaGly-NH2) [BRU-2764],4310,,,
DO3A10CM-G[Ipgly]HWSH[dR]W[Bpa]P[azaGly]-NH2 (reading uncertain) [BRU-2790],3300,,,
XHWSHXWXPX (DO3A10CM on N-terminus; AA1 Sar; AA6 Darg; AA8 Tha; AA10 azaGly-NH2) [BRU-2742],10000,,,
XHWSHXWXPX (DO3A10CM on N-terminus; AA1 Sar; AA6 Dharg; AA8 Bpa4; AA10 azaGly-NH2) [BRU-2893],2600,2.7,,
DO3A10CM-G[Etgly]HWSH[dR]W[Bpa]P[azaGly]-NH2 (reading uncertain) [BRU-2789],5120,,,
DO3A10CM-G[Hegly]HWSHRW[Bpa]P[azaGly]-NH2 (reading uncertain; also: AA6 Darg prints R) [BRU-2873],1330,,,

Binder,EC50 [nM],times lower binding than BRU-2443 [times],times lesser binding efficacy than BRU-2443 [times],fold reduction in binding potency against BRU-2813 [fold]
{DO3A10CM″}-[Sar]HWSH[dS]W[Bpa]P[azaGly]-NH2 [BRU-2761],13600,,,
DO3A10CM-[Sar]HWSH[Btd]W[Bpa]P[azaGly]-NH2 (reading uncertain) [BRU-3000],4230,,4.5,
{DO3A10CM″}-[Sar][His(pime)]WS[Tha][dR]W[Bpa]P[azaGly]-NH2 (reading uncertain) [BRU-2739],5280,,,
XHWSHXWXPX (DO3A10CM on N-terminus; AA1 Sar; AA6 Darg; AA8 Dtyr(OBz); AA10 azaGly-NH2) [BRU-2819],770,,,
XHWSHXWXPX (DO3A10CM on N-terminus; AA1 Sar; AA6 Darg; AA8 Amfe4; AA10 azaGly-NH2) [BRU-2760],3550,,,
XRXSHXWXPX (DO3A10CM on N-terminus; AA1 Dnal2; AA3 Pal3; AA6 Darg; AA8 Bpa4; AA10 azaGly-NH2) [BRU-3109],730,,,
{DO3A10CM″}-[Sar][Tha]WS[Tha][dR]W[Bpa]P[azaGly]-NH2 (reading uncertain) [BRU-2762],15000,,,
DO3A10CM-G[Chmgly]HWSHRW[Bpa]P[azaGly]-NH2 (not fully specified (residue 7); reading uncertain; also: AA6 Darg prints R) [BRU-2877],900,,,
XRWSHXWXPX (DO3A10CM on N-terminus; AA1 Mednal2; AA6 Darg; AA8 Bpa4; AA10 azaGly-NH2) [BRU-2965],580,,,2
XHWSHXWXPX (DO3A10CM on N-terminus; AA1 Sar; AA6 Darg; AA8 Ing2; AA10 azaGly-NH2) [BRU-2765],8710,,,
DO3A10CM-G[Chgly]HWSHRW[Bpa]P[azaGly]-NH2 (reading uncertain; also: AA6 Darg prints R) [BRU-2872],2900,,,
XHWSHXWXPX (DO3A10CM on N-terminus; AA1 Sar; AA6 Darg; AA8 Nal1; AA10 azaGly-NH2) [BRU-2720],540,,,
DO3A10CM-G[Prgly]HWSH[dR]W[Bpa]P[azaGly]-NH2 (reading uncertain) [BRU-2794],1300,,,
XHWSHXWXPX (DO3A10CM on N-terminus; AA1 Sar; AA6 Darg; AA8 Cha; AA10 azaGly-NH2) [BRU-2718],630,,,
DO3A10CM-G[Bugly]HWSH[dR]W[Bpa]P[azaGly]-NH2 (reading uncertain) [BRU-2791],4030,,,
{DO3A10CM″}-[Sar]HWSH[dR]WYP[azaGly]-NH2 [BRU-2758],10000,,,
XHWSHXWXPX (DO3A10CM on N-terminus; AA1 Sar; AA6 Darg; AA8 Bpa(NOH); AA10 azaGly-NH2) [BRU-2907],1900,,,
DO3A10CM-G[Cegly]HWSHRW[Bpa]P[azaGly]-NH2 (not fully specified (residue 7); reading uncertain; also: AA6 Darg prints R) [BRU-2875],8700,,,
XRWSXXWXPX (DO3A10CM on N-terminus; AA1 Dnal2; AA5 Tha; AA6 Darg; AA8 Bpa4; AA10 azaGly-NH2) [BRU-2958],710,,,
XHWSHXWXPX (DO3A10CM on N-terminus; AA1 Sar; AA6 Darg; AA8 Pal3; AA10 azaGly-NH2) [BRU-2726],17400,,,
